Measured values taken from patent US20090047272.

Target: G-actin in human serum

Protein	Average T50 (min) 50% DNA hydrolysis in human serum [min]	Time T50 (min) 50% DNA hydrolysis in human serum
wild-type human DNase I (protein) LKIAAFNIQTFGETKMSNATLVSYIVQILSRYDIALVQEVRDSHLTAVGKLLDNLNQDAPDTYHYVVSEPLGRNSYKERYLFVYRPDQVSAVDSYYYDDGCEPCGNDTFNREPAIVRFFSRFTEVREFAIVPLHAAPGDAVAEIDALYDVYLDVQEKWGLEDVMLMGDFNAGCSYVRPSQWSSIRLWTSPTFQWLIPDSADTTATPTHCAYDRIVVAGMLLRGAVVPDSALPFNFQAAYGLSDQLAQAISDHYPVEVMLK	28	26; 28; 30
actin-resistant version of DNase I, arDNase (+1), substitution A114R (protein) LKIAAFNIQTFGETKMSNATLVSYIVQILSRYDIALVQEVRDSHLTAVGKLLDNLNQDAPDTYHYVVSEPLGRNSYKERYLFVYRPDQVSAVDSYYYDDGCEPCGNDTFNREPRIVRFFSRFTEVREFAIVPLHAAPGDAVAEIDALYDVYLDVQEKWGLEDVMLMGDFNAGCSYVRPSQWSSIRLWTSPTFQWLIPDSADTTATPTHCAYDRIVVAGMLLRGAVVPDSALPFNFQAAYGLSDQLAQAISDHYPVEVMLK	3	2; 3; 4
